Measurements published in US20140242093A1, “METHODS AND COMPOSITIONS FOR MODULATING THE INNATE IMMUNE RESPONSE AND/OR MYOGENESIS IN A MAMMALIAN SUBJECT” (FRED HUTCHINSON CANCER RESEARCH CENTER, priority 2011, published 2014).

Test system: control human primary myoblasts
Experiment: Expression microarray of primary myoblasts transduced with lentivirus carrying DUX4-fl, DUX4-s or GFP
Procedure: Primary human myoblasts were collected and cultured as previously described (Snider et al., 2010). Primary myoblasts were maintained at or below 70% confluency for proliferation. For differentiation, cells were allowed to reach 95-100% confluency in growth medium. Once confluency was reached, the cells were changed to differentiation medium (F10 media supplemented with 1% horse serum, 10 μg/mL insulin, and 10 μg/mL transferrin, penicillin/streptomycin) and maintained for 4 days. Human RD cells were grown in DMEM in 10% bovine calf serum (Hyclone) and penicillin/streptomycin. The primary myoblasts were transduced with lentivirus carrying DUX-fl, DUX4- or GFP (MOI=15).
Expression microarrays were performed on the transduced cells at 24 hours after transduction as follows. […] Samples were analyzed by Illumina Human Whole Genome microarrays. Probe intensities were corrected, normalized, and summarized by the Lumi package of Bioconductor (Du et al., 2008). Differentially expressed genes were identified by the LIMMA package of Bioconductor (Wettenhall and Smyth, 2004). Gene set enrichment analysis (GSEA) was performed using the Bioconductor GOstats package (Falcon and Gentleman, 2007).

B1: DUX4-s: short splice form of DUX4 (SEQ ID NO:112), keeps the double-homeobox domains, lacks the C-terminal activation domain (protein, listed as Homo sapiens)
chain: MALPTPSDSTLPAEARGRGRRRRLVWTPSQSEALRACFERNPYPGIATRERLAQAIGIPEPRVQIWFQNERSRQLRQHRRESRPWPGRRGPPEGRRKRTAVTGSQTALLLRAFEKDRFPGIAAREELARETGLPESRIQIWFQNRRARHPGQGGRAPAQV
Refseq NM_152608.3
  C1orf55 expression fc: −0.3632
Refseq NM_152649.1, cultured human skeletal muscle
  MLKL expression fc: 1.457
Refseq NM_152677.1
  ZSCAN4 expression fc: 0.04366
Refseq NM_152703.2, cultured human skeletal muscle
  SAMD9L expression fc: 1.257
Refseq NM_152718.2, cultured human skeletal muscle
  VWCE expression fc: −0.1213
Refseq NM_152783.3
  fc of D2HGDH (expression array): −0.3982
Refseq NM_152877.1
  FAS fc: 0.1452
Refseq NM_153000.3, cultured human skeletal muscle
  APCDD1 expression fc: −0.4301
Refseq NM_153321.1
  PMP22 fc: 0.2667
Refseq NM_153449.2
  SLC2A14 expression fc: 0.2472
Refseq NM_153611.3, cultured human skeletal muscle
  CYBASC3 expression fc: −0.4218
Refseq NM_170699.2
  GPBAR1 expression fc: −0.1298
Refseq NM_170722.1
  NLRX1 fc: −0.1409
Refseq NM_172002.3
  fc of HSCB (expression array): 0.1735
Refseq NM_172070.2
  fc of ZNF650 (expression array): 0.6904
Refseq NM_172374.1
  fc of IL4I1 (expression array): 1.769
Refseq NM_173484.3
  KLF17 expression fc: 0.08045
Refseq NM_173587.2
  fc of RCOR2 (expression array): −0.1949
Refseq NM_173674.1
  fc of DCBLD1 (expression array): 1.594
Refseq NM_173701.1, cultured human skeletal muscle
  WARS expression fc: 1.715
Refseq NM_173824.2
  fc of C3orf38 (expression array): 1.033
Refseq NM_174916.1
  fc of UBR1 (expression array): 1.111
Refseq NM_174921.1
  fc of C4orf34 (expression array): 0.6119
Refseq NM_174938.3
  FRMD3 fc: −0.2907
Refseq NM_175617.3, cultured human skeletal muscle
  MT1E expression fc: 0.1289
Refseq NM_175852.3
  TXLNA fc: −0.1621
Refseq NM_176870.2, cultured human skeletal muscle
  MT1M expression fc: 1.185
Refseq NM_176895.1
  PPAP2A fc: 0.545
Refseq NM_177436.1
  CSE1L expression fc: 0.07287
Refseq NM_177968.2
  PPM1B expression fc: −0.0342
Refseq NM_178006.1
  fc of STARD13 (expression array): −0.8963
Refseq NM_178314.2
  RILPL1 fc: 0.6233
Refseq NM_181054.1
  HIF1A fc: 0.4209
Refseq NM_181353.1
  ID1 fc: 0.7329
Refseq NM_181435.4
  C1QTNF3 expression fc: −0.02264
Refseq NM_181677.1
  PPP2R2B expression fc: −0.1091
Refseq NM_181876.2
  PPP2R2C fc: −0.2308
Refseq NM_182557.2
  BCL9L fc: 0.7326
Refseq NM_182972.2
  fc of IRF2BP2 (expression array): −0.806
Refseq NM_182985.3
  fc of TRIM69 (expression array): 0.2639
Refseq NM_184086.1
  fc of TRIM55 (expression array): 0.1967
Refseq NM_184234.1
  RBM39 expression fc: 0.263
Refseq NM_194281.3
  INO80C expression fc: −0.1128
Refseq NM_194285.2
  SPTY2D1 expression fc: −0.2916
Refseq NM_194431.1
  fc of RNASE4 (expression array): −0.1107
Refseq NM_197966.1
  BID fc: −0.1675
Refseq NM_198055.1
  fc of MZF1 (expression array): 0.05558
Refseq NM_198150.1
  fc of ARSK (expression array): 1.03
Refseq NM_198291.1
  fc of SRC (expression array): 0.0569
Refseq NM_198450.3
  fc of APOOL (expression array): 1.369
Refseq NM_198459.2
  DENND2C expression fc: −0.2684
Refseq NM_198479.2
  TPRX1 expression fc: −0.05019
Refseq NM_198576.2, cultured human skeletal muscle
  AGRN expression fc: 0.3808
Refseq NM_198594.1, cultured human skeletal muscle
  C1QTNF1 expression fc: 0.7696
Refseq NM_198833.1
  fc of SERPINB8 (expression array): 1.016
Refseq NM_198925.1, cultured human skeletal muscle
  SEMA4B expression fc: 0.1542
Refseq NM_199001.1, cultured human skeletal muscle
  C9orf169 expression fc: −0.05213
Refseq NM_199048.1
  T1560 expression fc: 0.02012
Refseq NM_199139.1, cultured human skeletal muscle
  XAF1 expression fc: 0.6222
Refseq NM_199161.1, cultured human skeletal muscle
  SAA1 expression fc: 0.2569
Refseq NM_199181.2
  C20orf117 fc: −0.5322
Refseq NM_199203.1
  fc of TMEM189-UBE2V1 (expression array): 0.06378
Refseq NM_201554.1, cultured human skeletal muscle
  DGKA expression fc: 0.1014
Refseq NM_201599.1
  fc of ZMYM3 (expression array): −0.01297
Refseq NM_203301.1
  FBXO33 expression fc: 0.2162
Refseq NM_203446.1
  SYNJ1 expression fc: −0.07515
Refseq NM_207315.2
  fc of CMPK2 (expression array): 1.351
Refseq NM_207352.2
  CYP4V2 fc: −0.4989
Refseq NM_207380.1
  fc of C15orf52 (expression array): −0.2956
Refseq NM_207465.1
  FLJ45337 expression fc: −0.2461
Refseq NM_001001323.1
  ATP2B1 fc: −0.7039
Refseq NM_001001692.1
  FLJ45139 expression fc: 0.1009
Refseq NM_001001821.1
  OR2T34 expression fc: −0.05408
Refseq NM_001001995.1
  fc of GPM6B (expression array): −1.119
Refseq NM_001002006.1
  NT5C1B expression fc: −0.03655
Refseq NM_001002010.1
  fc of NT5C3 (expression array): 1.882
Refseq NM_001002814.1
  RAB11FIP1 expression fc: −0.4765
Refseq NM_001003679.1
  fc of LEPR (expression array): −0.5494
Refseq NM_001004328.1
  ZNF705A expression fc: −0.06059
Refseq NM_001005464.2
  HIST2H3A expression fc: −0.05203
Refseq NM_001005742.1
  GBA fc: 0.289
Refseq NM_001006610.1
  SIAH1 expression fc: −0.0793
Refseq NM_001008213.1
  OPTN fc: −0.5727
Refseq NM_001008539.2, cultured human skeletal muscle
  SLC7A2 expression fc: −0.1055
Refseq NM_001008540.1
  CXCR4 expression fc: −0.0521
Refseq NM_001009566.1
  fc of CLSTN1 (expression array): −0.2768
Refseq NM_001009611.1
  PRAMEF4 expression fc: 0.0423
Refseq NM_001010876.1
  C6orf191 expression fc: −0.05752
Refseq NM_001010889.2
  PRAMEF6 expression fc: −0.06189
Refseq NM_001010890.1
  PRAMEF9 expression fc: −0.07265
Refseq NM_001012276.1
  PRAMEF8 expression fc: 0.1662
Refseq NM_001012277.1
  PRAMEF7 expression fc: 0.106
Refseq NM_001012643.2
  fc of MYPOP (expression array): −0.03552
Refseq NM_001013407.1
  PRAMEF5 expression fc: 0.1054
Refseq NM_001013631.1
  HNRNPCL1 expression fc: −0.1035
Refseq NM_001013734.2
  RFPL4B expression fc: −0.1031
Refseq NM_001014440.2
  ODF3B fc: 0.4296
Refseq NM_001015882.2
  DNAJC25 expression fc: −0.5072
Refseq NM_001017425.2
  KCNK2 fc: 0.2137
Refseq NM_001017928.2
  CCDC58 expression fc: 0.07678
Refseq NM_001017971.1
  fc of ATP6AP1L (expression array): 0.02803
Refseq NM_001017995.1
  SH3PXD2B fc: −0.01555
Refseq NM_001018011.1, cultured human skeletal muscle
  ZBTB16 expression fc: 0.4921
Refseq NM_001018069.1
  fc of SERBP1 (expression array): −1.179
Refseq NM_001024466.1, cultured human skeletal muscle
  SOD2 expression fc: 1.532
Refseq NM_001024630.2
  fc of RUNX2 (expression array): 0.05524
Refseq NM_001024646.1
  CLK1 expression fc: 0.0752
Refseq NM_001024847.1
  fc of TGFBR2 (expression array): 0.1743
Refseq NM_001025235.1
  TSPAN4 fc: −0.1169
Refseq NM_001025603.1
  fc of RFX5 (expression array): −0.06023
Refseq NM_001032290.1
  PSRC1 fc: −0.4871
Refseq NM_001032409.1, cultured human skeletal muscle
  OAS1 expression fc: 1.453
Refseq NM_001033113.1
  ENTPD8 expression fc: 0.03523
Refseq NM_001033566.1
  RHOT1 fc: 0.3308
Refseq NM_001037333.1
  CYFIP2 fc: −0.633
Refseq NM_001037537.1
  fc of PHYH (expression array): −0.5757
Refseq NM_001039348.1
  fc of EFEMP1 (expression array): −0.2077
Refseq NM_001039361.1
  PRAMEF10 expression fc: 0.008756
Refseq NM_001039481.1
  ETNK1 expression fc: 0.06444
Refseq NM_001039615.1
  LOC440053 expression fc: −0.09982
Refseq NM_001039771.2
  CBLN3 fc: 0.1543
Refseq NM_001040708.1
  HEY1 expression fc: −0.04271
Refseq NM_001048201.1
  fc of UHRF1 (expression array): −1.034
Refseq NM_001048223.1
  DBNDD2 expression fc: 0.2257
Refseq NM_001077261.1
  NCOR2 fc: −0.2241
Refseq NM_001077493.1
  fc of NFKB2 (expression array): 0.2202
Refseq NM_001078174.1
  fc of SLC29A1 (expression array): −1.034
Refseq NM_001080463.1
  DYNC2H1 expression fc: 0.04558
Refseq NM_001080830.1
  PRAMEF12 expression fc: 0.1269
Refseq NM_001080998.1
  FRG2B expression fc: 0.1315
Refseq NM_001081551.2
  DEFB103A expression fc: 0.06581
Refseq NM_001081559.1
  CPSF4 fc: −0.2674
Refseq NM_001083112.1
  fc of GPD2 (expression array): 1.197
Refseq NM_001098199.1
  fc of GPR1 (expression array): 0.2201
Refseq NM_001098479.1, cultured human skeletal muscle
  HLA-F expression fc: 0.9368
Refseq NM_001098535.1
  RFPL3 expression fc: −0.06033
Refseq NM_001098538.1
  PRR4 expression fc: 0.1606
Refseq NM_001099684.1
  FAM156B fc: −0.1712
